This is an account of results in patent US20060034833A1 (published 2006).

The labels stand for the following.
B2: mouse IFN-gamma (ligand, UniProt P01580 23-155, looked up)
chain: HGTVIESLESLNNYFNSSGIDVEEKSLFLDIWRNWQKDGDMKILQSQIISFYLRLFEVLKDNQAISNNISVIESHLITTFFSNSKAKKDAFMSIAKFEVNNPQVQRQAFNELIRVVHQLLPESSLRKRKRSRC
notes: Used biotinylated (biotinamidocaproic acid 3-sulfo N-hydroxysuccinimide ester) in the assays; also called mouse IFN-γ; biotinylated mouse IFN-γ

The assay “mouse IFN-gamma” has as its target B2. Nature of the assay: ELISA screening of selected clones on captured biotinylated mouse IFN-γ (Examples 7 and 8). How it is done: To examine the clones selected using biotinylated human or mouse IFN-γ, wells were coated with neutravidine at a concentration of 2 μg/ml overnight at 4° C. Plates were washed 5 times with PBS/0.05% Tween-20. Wells were blocked with 1% caseine for 2 hrs at room temperature. Biotinylated mouse or human IFN-γ at a concentrabon of 1 μg/ml was captured overnight at 4° C. Plates were washed 5 times with PBS/0.05% Tween-20. Culture supernatant (⅓ diluted) was applied to the wells. Detection was performed using anti-c-myc antibody, followed by anti-mouse-HRP and ABTS/H₂O₂ as substrate. Plates were read at 405 nm after 30 minutes incubation at room temperature.
In general terms: ELISA stands for enzyme-linked immunosorbent assay.

In assay [1] the target is T1, mouse IFN-γ receptor (IFN-γ R1/Fc) (mouse, UniProt P15261 26-253, limits assumed).
T1 construct: Bought Fc fusion, coated on plates; not shown: Fc part of the bought fusion; not described
T1 sequence (looked up): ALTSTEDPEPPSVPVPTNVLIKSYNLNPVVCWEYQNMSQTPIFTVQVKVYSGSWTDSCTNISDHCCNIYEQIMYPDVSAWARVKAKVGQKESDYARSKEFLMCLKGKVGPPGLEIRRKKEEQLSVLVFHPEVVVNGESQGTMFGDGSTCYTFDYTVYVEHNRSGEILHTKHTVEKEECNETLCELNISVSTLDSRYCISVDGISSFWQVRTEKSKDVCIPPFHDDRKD
Put plainly: ELISA: biotinylated mouse IFN-γ on coated mouse IFN-γ R1/Fc, Extravidin-AP. How it is done: 96-well microtiter plates were coated with human IFN-γ receptor (IFN-γ R1 (R&D Systems, Cat Nr: 673-IR/CF) or mouse IFN-γ receptor (IFN-γ R1/Fc (R&D Systems, Cat Nr:1026-GR) at 1 μg/ml in PBS overnight at 4° C. Plates were washed 5 times with PBS/0.05% Tween-20. Plates were blocked for 2 hrs at room temperature using PBS+1% Caseine. A dilution serie of biotinylated human or mouse IFN-γ was incubated for 1 hr at room temperature. Plates were washed 5 times with PBS/0.05% Tween-20. Binding was detected using Extravidin-AP and pNPP. Plates were read at 405 nm after 30 minutes incubation at room temperature.

Assay [2] deals with T2, human IFN-gamma (human, UniProt P01579 24-166).
T2 sequence (looked up): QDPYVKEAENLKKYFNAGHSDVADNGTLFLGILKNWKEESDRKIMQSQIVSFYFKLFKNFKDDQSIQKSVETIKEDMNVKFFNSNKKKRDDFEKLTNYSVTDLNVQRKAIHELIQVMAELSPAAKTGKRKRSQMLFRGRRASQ
Nature of the assay: cell-based or functional assay.

For assay [3], the target named is T2, human IFN-gamma. Put plainly: competition ELISA: VHH pre-incubated with biotinylated human IFN-γ, coated human IFN-γ receptor. How it is done: Mouse or human IFN-γ receptor was coated at a concentration of 1-2 μg/ml overnight at 4° C. Plates were washed 5 times with PBS/0.05% Tween-20. Wells were blocked with 1% caseine overnight at 4° C. VHH was pre-incubated with 20 ng biotinylated human or mouse IFN-γ for 30 minutes at room temperature. The mixture was applied to the wells and incubated for 1 hr at room temperature. Detection was performed using Extravidin-AP and pNPP as substrate. Plates were read at 405 nm after 30 minutes incubation at room temperature. Abcam AB 7812 polyclonal antibody was used as a positive control showing a dosis-dependent inhibition of human IFN-γ/IFN-γ receptor as presented in FIG. 7.
As presented in Table 6, a dose-dependent inhibition assay to determine the IC50 was performed for representative clones of each sequence family.

B1: MP6 B1 BR (VHH)
VHH: QVQLQESGGGLVQAGGSLRLSCAASGFTSDDYAIGWFRQAPGKEREGVSCISSSDGVTYYADSVKGRFTISSDNAKNTVYLQMNSLKPEDTAVYYCAADSLPLCFSGSYYHPYEYDYLGQGTQVTVSS
notes: Llama VHH selected on mouse IFN-γ
As to B1, in the assay with mouse IFN-gamma, the binding result is “binds”.
Take B2: the binding result in assay [1] was “binds”.

B3: MP3C7SRA (VHH)
VHH: QVQLQESGGGLVQAGDSLRLSCAASGRSFSSYGMGWFRQAPGKEHEFVAGIWRSGVSLYYADSVKGRFTISRDDAKMTVSLQMNSLKPEDTAVYYCAAEATFPTWNRGRFADYDYSGQGTQVTVSS
B3: the “IC50 (nM), cell-based inhibition assay (FS4 cells treated with IFN-γ pre-incubated with VHH, EMC virus, MTT)” value (from here on “IC50 (nM), cell-based inhibition assay”) in the assay with human IFN-gamma [2] was found to be 7500 nM. Besides, the IC50 in the assay with human IFN-gamma [3] was more than 200 µg/mL.

B4: MP6 B10 BR (VHH)
VHH: QVQLQDSGGGLVQLGGSLRLSCAISGRILGSYAVGWFRQAPGKERQFVAAIGWSYGNTYYADSVKGRFTISRDNAKNTVYLQINSLKPEDTAVYYCAAGDTYLTGRPNEYAYWGQGTQVTVSS
notes: as for B1
For B4, the binding result with mouse IFN-gamma is “binds”.

B5: MP6 B12 BR (VHH)
VHH: QVQLQESGGGLVQAGGSLRLSCAASGFTFDDYDIGWFRQAPGKEREEVSCISNIDGSTYYADSVKGRFTISSDNAKNTAYLQMSSLKPEDTAVYYCAADIYVRCVHGLSPGYWGQGIQVTVSS
notes: as for B1
Take B5: in the assay with mouse IFN-gamma, the binding result is recorded as “binds”.

B6: MP3B1SRA (VHH)
VHH: QVQLQESGGGLVQPGGSLRLSCAASGFTSSNYAMSWVRQAPGKGLEWVSSINSRTGSITYADSVKGRFTITLDNAKNTLYLQMNSLKPEDTAVYYCASRVDDRVSRGQGTQVTVSS
On to B6, for which, in the assay with human IFN-gamma [2], the “IC50 (nM), cell-based inhibition assay” value came out at 9000 nM. Further, the IC50 with human IFN-gamma [3] stood at 20 µg/mL.

B7: MP4C10SR (VHH)
VHH: QVQLQESGGGLVQPGGSLRLSCAASGFTVSNYAMSWVRQPPGKGIEWVSSINNRNDHITYADSVKGRFTIARDNANNILYLQMNSLKPEDTAVYYCASRVDDRVSRGQGTQVTVSS
In the case of B7, the “IC50 (nM), cell-based inhibition assay” value with human IFN-gamma [2] was 200000 nM. The half-maximal inhibitory concentration (IC50) in the assay with human IFN-gamma [3] was more than 200 µg/mL.

B8: MP6 A8 BR (VHH)
VHH: QVQLQESGGGLVQAGGSLRLSCAASGFTFDDYAIGWFRQAPGKELEGVSMINSGGGSTYYADSVKGRFTISSDNAKNTVYLQMNSLKPEDTAVYYCAADQNARLFRLWVVTGTGPVDNALDAWGQGTLVTVSS
notes: as for B1
Regarding B8, the binding result in the assay with mouse IFN-gamma is given as “binds”.

B9: MP3F1SRA (VHH)
VHH: QVQLQESGGGLVQAGGSLTLSCVASGRTISDYAVGWFRQAPGKEREFVASISWGGGFTAFADSMKGRFTISRDNAKNTVYLQTHTLEPDDTSVYYCASSRRYCTGYRCYATASEFDSWGQGTQVTVSS
Regarding B9, in the assay with human IFN-gamma [2], the “IC50 (nM), cell-based inhibition assay” value is 9000 nM. The molecule also showed a 50% inhibitory concentration (IC50) with human IFN-gamma [3] of 8 µg/mL.

B10: MP3C1SR (VHH)
VHH: QVQLQDSGGGLVQAGGSLRLSCAAAGISGSVFSRTPMGWYRQAPGKQRELVAGILSSGATVYAESVKGRFTISRDNAKNTVYLQMNSLSPEDTAEYYCNTYPTWVLSWGQGTQVTVSS
On to B10, for which the “IC50 (nM), cell-based inhibition assay” value with human IFN-gamma [2] turned out to be 9000 nM. In addition, the IC50 with human IFN-gamma [3] was more than 200 µg/mL.

B11: MP3D2BR (VHH)
VHH: QVQLQESGGGLVQPGESLRLSCAASRGIFRFNAGGWYRQAPGKQRELVAFIGVDNTTRYIDSVKGRFTISRDNAKTTVYLQMNSLQPEDTAVYYCNKVPYIDWGQGTQVTVSS
As to B11, the “IC50 (nM), cell-based inhibition assay” value with human IFN-gamma [2] came out at 9000 nM. This molecule also returned an IC50 with human IFN-gamma [3] of 4 µg/mL.

B12: MP2F1BR (VHH)
VHH: AVQLVESGGGLVQTGDSLRLSCVASGGTFSRYAMGWFRQAPGKEREFVARIGYSGRSISYATSVEGRFAISRDNAKNTVYLQMNSLKPEDTAVYYCASLVSGTLYQADYWGQGTQVTVSS
For the molecule B12, the “IC50 (nM), cell-based inhibition assay” value with human IFN-gamma [2] worked out at 5000 nM. In the assay with human IFN-gamma [3], the IC50 was determined as 8 µg/mL.

B13: MP2F6SR (VHH)
VHH: QVKLEESGGGLVQAGGSLRLSCAASGRTFNNYNMGWFRQAPGKEREFVAAISWNGGSTYYDDSVKGRFTISRDNANNLVYLQMNSLNFEDTAVYYCACAANPYGIPQYRENRYDFWGQGTQVTVSS
On to B13, for which, in the assay with human IFN-gamma [2], the “IC50 (nM), cell-based inhibition assay” value came to 1500 nM. In the assay with human IFN-gamma [3], this molecule returned an IC50 of 1.75 µg/mL.

B14: MP3A7SRA (VHH)
VHH: QVQLQDSGGGLVQAGGSLRLSCAASGRTFSSFRMGWFRRAPGEEREFVAFVRSNGTSTYYADSVEGRFTITRDNAKNTVYLRMDSLKPEDTAVYYCAAATRDYGGSFDYWGQGTQVIVSS
Regarding B14, the “IC50 (nM), cell-based inhibition assay” value in the assay with human IFN-gamma [2] was found to be 9000 nM. Also, the IC50 in the assay with human IFN-gamma [3] was determined as 5 µg/mL.

B15: MP6 C11 BR (VHH)
VHH: QVQLQESGGGLVQAGGSLRLSCAASGRTFSTYAMGWFRQAPGKEREFVAGITSSGGYTYYADSVKGRFTISRDNAKNTVYLQMNSLKPEDTAVYYCAAGFRVGIALDLKGRYDYWGQGTQVTVSS
notes: as for B1
As to B15, the binding result in the assay with mouse IFN-gamma is given as “binds”.

B16: MP6 D6 BR (VHH)
VHH: QVQLQESGGGLVQAGGSLRLSCAVSGSIFSLLAMGWFRQAPGKERELVASVSTHSNTNYADSVKGRFTISRDNAKNTVYLQMNSLKPEDTAVYYCNAGGRYSARVYWGQGTQVTVSS
notes: as for B1
With B16, the binding result in the assay with mouse IFN-gamma was “binds”.

B17: MP2F6SR/MP2F6SR (VHH)
chain: QVKLEESGGGLVQAGGSLRLSCAASGRTFNNYNMGWFRQAPGKEREFVAAISWNGGSTYYDDSVKGRFTISRDNANNLVYLQMNSLNFEDTAVYYCACAANPYGIPQYRENRYDFWGQGTQVTVSSEPKTPKPQPAAAQVKLEESGGGLVQAGGSLRLSCAASGRTFNNYNMGWFRQAPGKEREFVAAISWNGGSTYYDDSVKGRFTISRDNANNLVYLQMNSLNFEDTAVYYCACAANPYGIPQYRENRYDFWGQGTQVTVSS
B17: the IC50 (nM), cell-based inhibition assay (FS4 cells treated with IFN-γ pre-incubated with VHH, EMC virus, MTT) with human IFN-gamma [2] came to 0.15 nM.

The term IC50 denotes the concentration at which inhibition is half-maximal. A low value points to higher potency.
